For data set [1], the target named is T1, Op MAL1 (maltase protein MAL1 of Ogataea polymorpha) (Ogataea angusta, UniProt Q9P8G8).
T1 sequence (Q9P8G8 1-564): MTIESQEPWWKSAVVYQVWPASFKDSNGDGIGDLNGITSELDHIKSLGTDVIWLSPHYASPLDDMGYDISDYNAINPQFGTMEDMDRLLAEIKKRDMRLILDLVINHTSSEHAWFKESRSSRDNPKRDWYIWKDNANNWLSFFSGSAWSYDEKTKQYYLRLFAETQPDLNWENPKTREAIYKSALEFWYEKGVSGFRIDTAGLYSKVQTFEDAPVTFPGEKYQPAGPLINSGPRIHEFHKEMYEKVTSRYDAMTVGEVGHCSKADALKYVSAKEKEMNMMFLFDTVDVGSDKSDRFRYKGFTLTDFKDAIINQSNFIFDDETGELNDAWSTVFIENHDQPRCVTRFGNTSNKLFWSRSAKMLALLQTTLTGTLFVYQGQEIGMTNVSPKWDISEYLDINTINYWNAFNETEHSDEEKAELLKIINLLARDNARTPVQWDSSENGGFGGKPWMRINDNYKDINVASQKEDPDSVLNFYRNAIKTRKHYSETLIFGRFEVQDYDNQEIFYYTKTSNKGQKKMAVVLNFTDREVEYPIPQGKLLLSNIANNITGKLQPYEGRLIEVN
Kind of data set: inhibition of α-pNPG hydrolysis (p-nitrophenol release). The format is biochemical. Conditions: competitive; 0.1-3.0 mM α-pNPG; 100 mM K-phosphate pH 6.5, 0.1 mM EDTA, 37 °C; 5 min pre-incubation; read-out: K i (mM) of Op maltase.

Substrate in data set [2]: CO[C@H]1O[C@H](CO)[C@@H](O)[C@H](O)[C@H]1O
The experiment in a line: initial rate of glucose release. The format is biochemical, Ogataea angusta. The following applies: 100 mM K-phosphate pH 6.5, 0.1 mM EDTA, 37 °C. The source says: (§1) initial rate of glucose release on Op MAL1 (maltase protein MAL1 of Ogataea polymorpha)

Substrate in data set [3]: OC[C@H]1O[C@@](CO)(O[C@H]2O[C@H](CO)[C@@H](O)[C@H](O)[C@H]2O)[C@@H](O)[C@@H]1O
The experiment in a line: initial rate of glucose release. The format is biochemical, Ogataea angusta. The following applies: 100 mM K-phosphate pH 6.5, 0.1 mM EDTA, 37 °C.
Source text: as §1

Substrate in the data set “purified protein”: O=[N+]([O-])c1ccc(O[C@H]2O[C@H](CO)[C@@H](O)[C@H](O)[C@H]2O)cc1
The experiment in a line: purified protein. The following applies: 100 mM K-phosphate pH 6.5, 0.1 mM EDTA, 37 °C.

In the case of `OC[C@H]1OC(O)[C@H](O)[C@@H](O)[C@@H]1O` (stereo partly drawn) [D-Glucose], the Ki in data set [1] was 5.1 ± 0.7 mM.

Consider `C[C@H]1O[C@H](O[C@H]2[C@H](O)[C@@H](O)[C@@H](O[C@H]3[C@H](O)[C@@H](O)C(O)O[C@@H]3CO)O[C@@H]2CO)[C@H](O)[C@@H](O)[C@@H]1N[C@H]1C=C(CO)[C@@H](O)[C@H](O)[C@H]1O` (some centres unmarked) [Acarbose], for which the Ki in data set [1] turned out to be 0.0065 ± 0.0008 mM.

B1: Op MAL1 (maltase protein MAL1 of Ogataea polymorpha) (Ogataea angusta) (protein)
chain: MTIESQEPWWKSAVVYQVWPASFKDSNGDGIGDLNGITSELDHIKSLGTDVIWLSPHYASPLDDMGYDISDYNAINPQFGTMEDMDRLLAEIKKRDMRLILDLVINHTSSEHAWFKESRSSRDNPKRDWYIWKDNANNWLSFFSGSAWSYDEKTKQYYLRLFAETQPDLNWENPKTREAIYKSALEFWYEKGVSGFRIDTAGLYSKVQTFEDAPVTFPGEKYQPAGPLINSGPRIHEFHKEMYEKVTSRYDAMTVGEVGHCSKADALKYVSAKEKEMNMMFLFDTVDVGSDKSDRFRYKGFTLTDFKDAIINQSNFIFDDETGELNDAWSTVFIENHDQPRCVTRFGNTSNKLFWSRSAKMLALLQTTLTGTLFVYQGQEIGMTNVSPKWDISEYLDINTINYWNAFNETEHSDEEKAELLKIINLLARDNARTPVQWDSSENGGFGGKPWMRINDNYKDINVASQKEDPDSVLNFYRNAIKTRKHYSETLIFGRFEVQDYDNQEIFYYTKTSNKGQKKMAVVLNFTDREVEYPIPQGKLLLSNIANNITGKLQPYEGRLIEVN
By Km is commonly meant the concentration of substrate that gives half-maximal velocity. By kcat is commonly meant the number of substrate molecules converted per active site and unit of time at saturation. In general, kcat/Km refers to the turnover number divided by the Michaelis constant. Regarding B1, in data set [2], the Michaelis constant (Km) is 35.5 ± 3.3 mM, the kcat amounted to 30.1 ± 1.1 s⁻¹ and the catalytic efficiency (kcat/Km) worked out at 848 M⁻¹ s⁻¹. For the same molecule, in data set [3], the Michaelis-Menten constant (Km) was 25.1 ± 2.4 mM, the kcat amounted to 183 ± 6.95 s⁻¹ and the kcat/Km worked out at 7290 M⁻¹ s⁻¹. For the same molecule, in “purified protein”, the Km is listed as 0.52 ± 0.05 mM, the turnover number (kcat) was 141 s⁻¹ and the kcat/Km is 272000 M⁻¹ s⁻¹.
